Test results: US12295987B2, “Method of using a GIP/GLP1 co-agonist for diabetes” (Eli Lilly and Company, priority 2018, dated 2025)
Numbered stars: 1 amine (or outer) side, 2 acyl side, 3 side chain; on linkers, the order of the positions; unused ones are H or OH. Square brackets hold non-standard residues; d marks the D form. Side chains are listed from the residue outwards. Ends that are not written are not given here. * marks the point of attachment. C20 diacid = O=C(O)CCCCCCCCCCCCCCCCCCC(=O)*; C18 diacid = O=C(O)CCCCCCCCCCCCCCCCC(=O)*; γGlu = O=C(O)[C@H](CCC(=O)[*:2])N[*:1]; αMeF = C[C@](N)(Cc1ccccc1)C(=O)O; αMeL = CC(C)C[C@](C)(N)C(=O)O; αMeP = C[C@@]1(C(=O)O)CCCN1; cTA = not defined here; AEEA = NCCOCCOCC(=O)O; Aib = CC(C)(N)C(=O)O

target: T1, human gastric inhibitory peptide receptor (hGIPR) (Homo sapiens, UniProt P48546); test: cAMP pharmacological functional assay in presence of 0.1% casein, hGIPR; format: cell-based; details: ratio of hGIPR to hGLP1R cAMP EC50 ratios
T1 construct: expressed in transfected cells; host or cells: HEK293
T1 sequence (P48546 22-466): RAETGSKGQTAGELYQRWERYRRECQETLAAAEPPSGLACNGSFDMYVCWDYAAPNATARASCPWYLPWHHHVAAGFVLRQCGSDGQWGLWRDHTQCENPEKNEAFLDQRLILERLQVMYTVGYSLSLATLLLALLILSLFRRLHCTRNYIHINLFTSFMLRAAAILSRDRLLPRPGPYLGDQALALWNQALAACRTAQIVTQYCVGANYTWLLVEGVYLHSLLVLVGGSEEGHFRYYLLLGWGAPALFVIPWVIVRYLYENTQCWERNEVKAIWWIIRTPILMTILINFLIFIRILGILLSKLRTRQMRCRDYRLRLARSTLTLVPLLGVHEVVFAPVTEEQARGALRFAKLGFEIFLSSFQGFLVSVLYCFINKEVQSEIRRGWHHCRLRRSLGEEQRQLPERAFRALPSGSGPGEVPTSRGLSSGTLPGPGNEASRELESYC

| Substance | [hGIPR/hGLP1R] EC50 Ratio |
| --- | --- |
| Y-Aib-EGTFTSDYSILLDKK((2-[2-(2-Amino-ethoxy)-ethoxy]-acetyl)2-(γGlu)-CO—(CH2)18—CO2H)AQ-Aib-AFIEYLIEGGPSSG-NH2 (Y[Aib]EGTFTSDYSILLDKK([AEEA-AEEA-γGlu-C20 diacid])AQ[Aib]AFIEYLIEGGPSSG-NH2; N-terminus assumed; SMILES CC[C@H](C)[C@H](NC(=O)[C@H](CC(C)C)NC(=O)[C@H](Cc1ccc(O)cc1)NC(=O)[C@H](CCC(=O)O)NC(=O)[C@@H](NC(=O)[C@H](Cc1ccccc1)NC(=O)[C@H](C)NC(=O)C(C)(C)NC(=O)[C@H](CCC(N)=O)NC(=O)[C@H](C)NC(=O)[C@H](CCCCNC(=O)COCCOCCNC(=O)COCCOCCNC(=O)CC[C@H](NC(=O)CCCCCCCCCCCCCCCCCCC(=O)O)C(=O)O)NC(=O)[C@H](CCCCN)NC(=O)[C@H](CC(=O)O)NC(=O)[C@H](CC(C)C)NC(=O)[C@H](CC(C)C)NC(=O)[C@@H](NC(=O)[C@H](CO)NC(=O)[C@H](Cc1ccc(O)cc1)NC(=O)[C@H](CC(=O)O)NC(=O)[C@H](CO)NC(=O)[C@@H](NC(=O)[C@H](Cc1ccccc1)NC(=O)[C@@H](NC(=O)CNC(=O)[C@H](CCC(=O)O)NC(=O)C(C)(C)NC(=O)[C@@H](N)Cc1ccc(O)cc1)[C@@H](C)O)[C@@H](C)O)[C@@H](C)CC)[C@@H](C)CC)C(=O)N[C@@H](CCC(=O)O)C(=O)NCC(=O)NCC(=O)N1CCC[C@H]1C(=O)N[C@@H](CO)C(=O)N[C@@H](CO)C(=O)NCC(N)=O) [Peptide 50] | 2.90 |
| Y-Aib-EGTFTSDYSILLDSK((2-[2-(2-Amino-ethoxy)-ethoxy]-acetyl)2-(γGlu)-CO—(CH2)18—CO2H)AQ-Aib-AFIEYLIEGGPSSGAPPPS-NH2 (Y[Aib]EGTFTSDYSILLDSK([AEEA-AEEA-γGlu-C20 diacid])AQ[Aib]AFIEYLIEGGPSSGAPPPS-NH2; N-terminus assumed; SMILES CC[C@H](C)[C@H](NC(=O)[C@H](CC(C)C)NC(=O)[C@H](Cc1ccc(O)cc1)NC(=O)[C@H](CCC(=O)O)NC(=O)[C@@H](NC(=O)[C@H](Cc1ccccc1)NC(=O)[C@H](C)NC(=O)C(C)(C)NC(=O)[C@H](CCC(N)=O)NC(=O)[C@H](C)NC(=O)[C@H](CCCCNC(=O)COCCOCCNC(=O)COCCOCCNC(=O)CC[C@H](NC(=O)CCCCCCCCCCCCCCCCCCC(=O)O)C(=O)O)NC(=O)[C@H](CO)NC(=O)[C@H](CC(=O)O)NC(=O)[C@H](CC(C)C)NC(=O)[C@H](CC(C)C)NC(=O)[C@@H](NC(=O)[C@H](CO)NC(=O)[C@H](Cc1ccc(O)cc1)NC(=O)[C@H](CC(=O)O)NC(=O)[C@H](CO)NC(=O)[C@@H](NC(=O)[C@H](Cc1ccccc1)NC(=O)[C@@H](NC(=O)CNC(=O)[C@H](CCC(=O)O)NC(=O)C(C)(C)NC(=O)[C@@H](N)Cc1ccc(O)cc1)[C@@H](C)O)[C@@H](C)O)[C@@H](C)CC)[C@@H](C)CC)C(=O)N[C@@H](CCC(=O)O)C(=O)NCC(=O)NCC(=O)N1CCC[C@H]1C(=O)N[C@@H](CO)C(=O)N[C@@H](CO)C(=O)NCC(=O)N[C@@H](C)C(=O)N1CCC[C@H]1C(=O)N1CCC[C@H]1C(=O)N1CCC[C@H]1C(=O)N[C@@H](CO)C(N)=O) [Peptide 9] | 2.45 |
| Y-Aib-EGTFTSDYSK((2-[2-(2-Amino-ethoxy)-ethoxy]-acetyl)2-(γGlu)-CO—(CH2)18—CO2H)LLDKIAQ-Aib-AFIEYLIEGGPSSGAPPPS-NH2 (Y[Aib]EGTFTSDYSK([AEEA-AEEA-γGlu-C20 diacid])LLDKIAQ[Aib]AFIEYLIEGGPSSGAPPPS-NH2; N-terminus assumed; SMILES CC[C@H](C)[C@H](NC(=O)[C@H](CCCCN)NC(=O)[C@H](CC(=O)O)NC(=O)[C@H](CC(C)C)NC(=O)[C@H](CC(C)C)NC(=O)[C@H](CCCCNC(=O)COCCOCCNC(=O)COCCOCCNC(=O)CC[C@H](NC(=O)CCCCCCCCCCCCCCCCCCC(=O)O)C(=O)O)NC(=O)[C@H](CO)NC(=O)[C@H](Cc1ccc(O)cc1)NC(=O)[C@H](CC(=O)O)NC(=O)[C@H](CO)NC(=O)[C@@H](NC(=O)[C@H](Cc1ccccc1)NC(=O)[C@@H](NC(=O)CNC(=O)[C@H](CCC(=O)O)NC(=O)C(C)(C)NC(=O)[C@@H](N)Cc1ccc(O)cc1)[C@@H](C)O)[C@@H](C)O)C(=O)N[C@@H](C)C(=O)N[C@@H](CCC(N)=O)C(=O)NC(C)(C)C(=O)N[C@@H](C)C(=O)N[C@@H](Cc1ccccc1)C(=O)N[C@H](C(=O)N[C@@H](CCC(=O)O)C(=O)N[C@@H](Cc1ccc(O)cc1)C(=O)N[C@@H](CC(C)C)C(=O)N[C@H](C(=O)N[C@@H](CCC(=O)O)C(=O)NCC(=O)NCC(=O)N1CCC[C@H]1C(=O)N[C@@H](CO)C(=O)N[C@@H](CO)C(=O)NCC(=O)N[C@@H](C)C(=O)N1CCC[C@H]1C(=O)N1CCC[C@H]1C(=O)N1CCC[C@H]1C(=O)N[C@@H](CO)C(N)=O)[C@@H](C)CC)[C@@H](C)CC) [Peptide 25] | 3.23 |
| Y-Aib-cTA-GT-αMeF-TSDYSI-αMeL-LDEK((2-[2-(2-Amino-ethoxy)-ethoxy]-acetyl)2-(γGlu)-CO—(CH2)18—CO2H)AQ-Aib-AFIEYLIEGGPSSGAPPPS-NH2 (Y[Aib][cTA]GT[αMeF]TSDYSI[αMeL]LDEK([AEEA-AEEA-γGlu-C20 diacid])AQ[Aib]AFIEYLIEGGPSSGAPPPS-NH2; reading uncertain; also: printed as Y-Aib-cTA-GT-αMeF-TSDYSI-αMeL-LDEK((2-[2-(2-Amino-ethoxy)-ethoxy]-acetyl)2-(γGlu)-CO—(CH2)18—CO2H)AQ-Aib-AFIEYLIEGGPSSGAPPPS-NH2) [Peptide 120] | 5.24 |
| Y-Pro-EGTFTSDYSILLDKK((2-[2-(2-Amino-ethoxy)-ethoxy]-acetyl)2-(γGlu)-CO—(CH2)18—CO2H)AQ-Aib-AFIEYLIEGGPSSGAPPPS-NH2 (YPEGTFTSDYSILLDKK([AEEA-AEEA-γGlu-C20 diacid])AQ[Aib]AFIEYLIEGGPSSGAPPPS-NH2; N-terminus assumed; SMILES CC[C@H](C)[C@H](NC(=O)[C@H](CC(C)C)NC(=O)[C@H](Cc1ccc(O)cc1)NC(=O)[C@H](CCC(=O)O)NC(=O)[C@@H](NC(=O)[C@H](Cc1ccccc1)NC(=O)[C@H](C)NC(=O)C(C)(C)NC(=O)[C@H](CCC(N)=O)NC(=O)[C@H](C)NC(=O)[C@H](CCCCNC(=O)COCCOCCNC(=O)COCCOCCNC(=O)CC[C@H](NC(=O)CCCCCCCCCCCCCCCCCCC(=O)O)C(=O)O)NC(=O)[C@H](CCCCN)NC(=O)[C@H](CC(=O)O)NC(=O)[C@H](CC(C)C)NC(=O)[C@H](CC(C)C)NC(=O)[C@@H](NC(=O)[C@H](CO)NC(=O)[C@H](Cc1ccc(O)cc1)NC(=O)[C@H](CC(=O)O)NC(=O)[C@H](CO)NC(=O)[C@@H](NC(=O)[C@H](Cc1ccccc1)NC(=O)[C@@H](NC(=O)CNC(=O)[C@H](CCC(=O)O)NC(=O)[C@@H]1CCCN1C(=O)[C@@H](N)Cc1ccc(O)cc1)[C@@H](C)O)[C@@H](C)O)[C@@H](C)CC)[C@@H](C)CC)C(=O)N[C@@H](CCC(=O)O)C(=O)NCC(=O)NCC(=O)N1CCC[C@H]1C(=O)N[C@@H](CO)C(=O)N[C@@H](CO)C(=O)NCC(=O)N[C@@H](C)C(=O)N1CCC[C@H]1C(=O)N1CCC[C@H]1C(=O)N1CCC[C@H]1C(=O)N[C@@H](CO)C(N)=O) [Peptide 88] | 4.27 |
| Y-αMePro-EGTFTSDYSILLDEK((2-[2-(2-Amino-ethoxy)-ethoxy]-acetyl)2-(γGlu)-CO—(CH2)16—CO2H)AQQAFIEYLIEGGPSSG-NH2 (Y[αMeP]EGTFTSDYSILLDEK([AEEA-AEEA-γGlu-C18 diacid])AQQAFIEYLIEGGPSSG-NH2; N-terminus assumed; SMILES CC[C@H](C)[C@H](NC(=O)[C@H](CC(C)C)NC(=O)[C@H](Cc1ccc(O)cc1)NC(=O)[C@H](CCC(=O)O)NC(=O)[C@@H](NC(=O)[C@H](Cc1ccccc1)NC(=O)[C@H](C)NC(=O)[C@H](CCC(N)=O)NC(=O)[C@H](CCC(N)=O)NC(=O)[C@H](C)NC(=O)[C@H](CCCCNC(=O)COCCOCCNC(=O)COCCOCCNC(=O)CC[C@H](NC(=O)CCCCCCCCCCCCCCCCC(=O)O)C(=O)O)NC(=O)[C@H](CCC(=O)O)NC(=O)[C@H](CC(=O)O)NC(=O)[C@H](CC(C)C)NC(=O)[C@H](CC(C)C)NC(=O)[C@@H](NC(=O)[C@H](CO)NC(=O)[C@H](Cc1ccc(O)cc1)NC(=O)[C@H](CC(=O)O)NC(=O)[C@H](CO)NC(=O)[C@@H](NC(=O)[C@H](Cc1ccccc1)NC(=O)[C@@H](NC(=O)CNC(=O)[C@H](CCC(=O)O)NC(=O)[C@]1(C)CCCN1C(=O)[C@@H](N)Cc1ccc(O)cc1)[C@@H](C)O)[C@@H](C)O)[C@@H](C)CC)[C@@H](C)CC)C(=O)N[C@@H](CCC(=O)O)C(=O)NCC(=O)NCC(=O)N1CCC[C@H]1C(=O)N[C@@H](CO)C(=O)N[C@@H](CO)C(=O)NCC(N)=O) [Peptide 197] | 4.52 |
